Measurements: US10689421B2, “Bacteriocin-producing Paenibacillus ehimensis and application thereof” (National Pingtung University of Science and Technology, priority 2018, dated 2020)

What was measured:
Experiment in all cases: Inhibitory zone of Peocin on solid medium containing pathogen
Type in all cases: cell-based
Details in all cases: solid medium containing strain 10^6 CFU/ml
Aeromonas hydrophila = tested on: Aeromonas hydrophila
Text: (§1) Following pathogens were subjected in the test. Six aquaculture pathogen: Aeromonas hydrophila, Vibrio vulnificus, Vibrio alginolyticus, Vibrio parahaemolyticus, Streptococcus agalactiae and Debaryomyces hansenii. Five foodborne pathogen which cause food rot and food poisoning: Staphylococcus aureus, Methicillin-resistant Staphylococcus aureus (MRSA), Escherichia coli, Salmonella typhimurium and Listeria monocytogenes. Two clinical infectious pathogens: Pseudomonas aeruginosa and Burkholderia gladioli causing leaf spot disease. Culture these strains separately and create solid medium containing these strains (10^6 CFU/ml). Add antibacterial protein after solid medium solidifies, then measure the antibacterial activity and inhibitory zone diameter.

Salmonella typhimurium = tested on: Salmonella typhimurium
Text: as §1

Burkholderia gladioli = tested on: Burkholderia gladioli
Text: as §1

Staphylococcus aureus = tested on: Staphylococcus aureus
Text: as §1

Listeria monocytogenes = tested on: Listeria monocytogenes
Text: as §1

Vibrio vulnificus = tested on: Vibrio vulnificus
Text: as §1

Vibrio alginolyticus = tested on: Vibrio alginolyticus
Text: as §1

Streptococcus agalactiae = tested on: Streptococcus agalactiae
Text: as §1

Vibrio parahaemolyticus = tested on: Vibrio parahaemolyticus
Text: as §1

Escherichia coli = tested on: Escherichia coli
Text: as §1

Debaryomyces hansenii = tested on: Debaryomyces hansenii
Text: as §1

[1] = tested on: Methicillin-resistant Staphylococcus aureus (MRSA)
Text: as §1

Pseudomonas aeruginosa = tested on: Pseudomonas aeruginosa
Text: as §1

B1: Peocin: bacteriocin; DNA starvation/stationary phase protection protein produced by Paenibacillus ehimensis NPUST-1, amino acid SEQ ID NO: 1 (protein, listed as Paenibacillus ehimensis)
chain: MNEQLTVLLNNQIANWSVLYVKLHNYHWYVKGPQFFTLHTKFEELYTEAALHVDALAERLLALGGKPVATMSGSLRLASVREAEGEESAERMVAALVNDFTLIIGELKSGMKYAESVQDETTGDLLLAIHSSLEKHVWMLNAFLGN
In the case of B1, the “Diameter of inhibitory zone” value (Aeromonas hydrophila) is reported as 1.3 ± 0.00 cm, the “Diameter of inhibitory zone” value (Salmonella typhimurium) is reported as 1.1 ± 0.05 cm and the “Diameter of inhibitory zone” value (Burkholderia gladioli) is reported as 1.5 ± 0.05 cm. The “Diameter of inhibitory zone” value (Staphylococcus aureus) was 1.1 ± 0.05 cm, the “Diameter of inhibitory zone” value (Listeria monocytogenes) was 1.0 ± 0.05 cm and the “Diameter of inhibitory zone” value (Vibrio vulnificus) was 1.3 ± 0.00 cm. For the same molecule, the “Diameter of inhibitory zone” value (Vibrio alginolyticus) was 1.1 ± 0.03 cm, the “Diameter of inhibitory zone” value (Streptococcus agalactiae) was 1.4 ± 0.00 cm and the “Diameter of inhibitory zone” value (Vibrio parahaemolyticus) was 1.2 ± 0.03 cm. The “Diameter of inhibitory zone” value (Escherichia coli) was 1.4 ± 0.00 cm, the “Diameter of inhibitory zone” value (Debaryomyces hansenii) was 1.3 ± 0.00 cm and the “Diameter of inhibitory zone” value [1] was 1.1 ± 0.05 cm. The “Diameter of inhibitory zone” value (Pseudomonas aeruginosa) was 1.2 ± 0.00 cm.
